Patent US20030124530 (Genelabs Technologies, Inc., published 2003)

Legend:
[1] = target: T1, UL9-COOH (C-terminal DNA-binding fragment of UL9) (Herpes simplex virus 1, UniProt P10193 P10193:535-851); assay: EMSA; flanks have little effect on off-rate; filter binding same; disrupted by actinomycin D; conditions: tags: GST fusion from pGEX-2T, thrombin-cleaved; E. coli JM109; bacterial extracts also used; label: 32P
[2] = target: T1, UL9-COOH (C-terminal DNA-binding …); assay: EMSA; flanks have little effect on off-rate; disrupted by distamycin A; conditions: tags: GST fusion from pGEX-2T, thrombin-cleaved; E. coli JM109; bacterial extracts also used; label: 32P
[3] = target: T1, UL9-COOH (C-terminal DNA-binding …); assay: EMSA; flanks have little effect on off-rate; conditions: tags: GST fusion from pGEX-2T, thrombin-cleaved; E. coli JM109; bacterial extracts also used; label: 32P
[4] = target: T1, UL9-COOH (C-terminal DNA-binding …); assay: EMSA; flanks have little effect on off-rate; disrupted by actinomycin D and doxorubicin; conditions: tags: GST fusion from pGEX-2T, thrombin-cleaved; E. coli JM109; bacterial extracts also used; label: 32P
[5] = target: T1, UL9-COOH (C-terminal DNA-binding …); assay: competition; unlabelled competitor in dissociation assay; conditions: tags: GST fusion from pGEX-2T, thrombin-cleaved; E. coli JM109; bacterial extracts also used
[6] = target: T1, UL9-COOH (C-terminal DNA-binding …); assay: EMSA; flanks have little effect on off-rate; disrupted by doxorubicin; conditions: tags: GST fusion from pGEX-2T, thrombin-cleaved; E. coli JM109; bacterial extracts also used; label: 32P
[7] = target: T1, UL9-COOH (C-terminal DNA-binding …); assay: EMSA; flanks have little effect on off-rate; disrupted by distamycin A and doxorubicin; conditions: tags: GST fusion from pGEX-2T, thrombin-cleaved; E. coli JM109; bacterial extracts also used; label: 32P
[8] = target: T1, UL9-COOH (C-terminal DNA-binding …); assay: EMSA; flanks have little effect on off-rate; particularly disrupted by doxorubicin; conditions: tags: GST fusion from pGEX-2T, thrombin-cleaved; E. coli JM109; bacterial extracts also used; label: 32P

T1 sequence (P10193 535-851, one chain of several): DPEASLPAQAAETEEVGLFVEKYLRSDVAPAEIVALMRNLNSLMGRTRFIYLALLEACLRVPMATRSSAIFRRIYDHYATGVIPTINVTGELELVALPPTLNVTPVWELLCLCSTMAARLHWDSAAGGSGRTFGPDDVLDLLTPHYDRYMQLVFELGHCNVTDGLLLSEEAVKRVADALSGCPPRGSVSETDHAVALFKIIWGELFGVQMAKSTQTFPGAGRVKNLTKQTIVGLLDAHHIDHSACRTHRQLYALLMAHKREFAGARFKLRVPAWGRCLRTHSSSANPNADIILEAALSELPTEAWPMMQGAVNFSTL

B1: UL9 CCCG (dsDNA)
DNA 1: GGCCCGCCCCGTTCGCACTTCCCGCCCCGG
DNA 2: CCGGGGCGGGAAGTGCGAACGGGGCGGGCC
- binding result [1]: binds

B2: UL9 polyA (dsDNA)
DNA 1: GGAAAAAAACGTTCGCACTTAAAAAAAAGG
DNA 2: CCTTTTTTTTAAGTGCGAACGTTTTTTTCC
- binding result [2]: binds

B3: FIG. 5 oligo SEQ ID NO:610 (dsDNA)
DNA 1: GGACGCACGCGTTCGCACTTGCAGCAGCGG
DNA 2: CCGCTGCTGCAAGTGCGAACGCGTGCGTCC
- binding result [3]: binds

B4: UL9 GGGC (dsDNA)
DNA 1: GGCGGGCGCCGTTCGCACTTGGGCGGGCGG
DNA 2: CCGCCCGCCCAAGTGCGAACGGCGCCCGCC
- binding result [4]: binds

B5: UL9 ATAT (dsDNA)
DNA 1: GGATATATACGTTCGCACTTTAATTATTGG
DNA 2: CCAATAATTAAAGTGCGAACGTATATATCC
- binding result [2]: binds

B6: 17 bp UL9 competitor (dsDNA)
DNA 1: GGTCGTTCGCACTTCGC
DNA 2: GCGAAGTGCGAACGACC
- binding result [5]: binds

B7: oriEco2 (dsDNA)
DNA 1: GGCGAATTCGACGTTCGCACTTCGTCCCAAT
DNA 2: ATTGGGACGAAGTGCGAACGTCGAATTCGCC
- binding result [6]: binds

B8: ATori1 (dsDNA)
DNA 1: GCGTATATATCGTTCGCACTTCGTCCCAAT
DNA 2: ATTGGGACGAAGTGCGAACGATATATACGC
- binding result [3]: binds

B9: UL9 polyT (dsDNA)
DNA 1: GGTTTTTTTCGTTCGCACTTTTTTTTTTGG
DNA 2: CCAAAAAAAAAAGTGCGAACGAAAAAAACC
- binding result [7]: binds

B10: oriEco3 (dsDNA)
DNA 1: GGCGAATTCGATCGTTCGCACTTCGTCCCAAT
DNA 2: ATTGGGACGAAGTGCGAACGATCGAATTCGCC
- binding result [8]: binds
